Assay results published in publication PMC10786891, “Massively parallel profiling of RNA-targeting CRISPR-Cas13d”.

T1: EsCas13d, nuclease-dead (Eubacterium siraeum, UniProt B0MS50, R295A;H300A;R849A;H854A)
T1 sequence: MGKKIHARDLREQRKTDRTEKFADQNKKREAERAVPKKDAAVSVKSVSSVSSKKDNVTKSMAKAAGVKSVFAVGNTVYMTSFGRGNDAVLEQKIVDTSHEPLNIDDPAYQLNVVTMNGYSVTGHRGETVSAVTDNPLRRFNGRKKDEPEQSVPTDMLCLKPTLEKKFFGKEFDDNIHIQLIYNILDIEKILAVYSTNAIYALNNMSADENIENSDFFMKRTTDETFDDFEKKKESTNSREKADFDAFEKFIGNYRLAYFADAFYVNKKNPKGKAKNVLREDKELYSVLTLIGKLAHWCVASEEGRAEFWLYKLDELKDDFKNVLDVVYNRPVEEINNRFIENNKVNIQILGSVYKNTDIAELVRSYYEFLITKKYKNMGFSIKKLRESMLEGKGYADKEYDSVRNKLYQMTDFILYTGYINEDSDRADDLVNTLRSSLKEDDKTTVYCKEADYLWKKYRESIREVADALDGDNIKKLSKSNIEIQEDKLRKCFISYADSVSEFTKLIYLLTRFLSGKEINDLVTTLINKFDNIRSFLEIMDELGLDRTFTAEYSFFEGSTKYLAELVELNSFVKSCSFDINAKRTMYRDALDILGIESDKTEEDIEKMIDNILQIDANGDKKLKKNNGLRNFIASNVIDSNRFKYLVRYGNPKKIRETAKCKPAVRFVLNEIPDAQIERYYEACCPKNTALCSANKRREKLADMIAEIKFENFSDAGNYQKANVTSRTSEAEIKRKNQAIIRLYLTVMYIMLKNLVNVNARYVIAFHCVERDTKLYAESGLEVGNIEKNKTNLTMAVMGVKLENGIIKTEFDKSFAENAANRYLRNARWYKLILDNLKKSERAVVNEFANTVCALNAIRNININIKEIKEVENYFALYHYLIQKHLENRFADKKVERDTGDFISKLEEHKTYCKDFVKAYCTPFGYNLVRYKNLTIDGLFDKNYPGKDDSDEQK

B1: target 1 del11,del14 (mixed)
RNA 1: CACCCGUGCAAAAAUGCAGGGGUCUAAAACUGAGCGGAUAACCUCUCUAUGG
RNA 2: GGGAAUGGAUCCACAUCUACGAAUUCGUACCAUAGAGGGUAUCCGCUCACCGAGAUCGGAAGAGCACACGU
B2: target 1 insA 3' of 21,insA 3' of 21 (mixed)
RNA 1: CACCCGUGCAAAAAUGCAGGGGUCUAAAACUGAGCGGAUAACCUCUCUAUGG
RNA 2: GGGAAUGGAUCCACAUCUACGAAUUCGUACCAAAUAGAGAGGUUAUCCGCUCACCGAGAUCGGAAGAGCACACGU
B3: target 1 insA 3' of 3,insG 3' of 3 (mixed)
RNA 1: CACCCGUGCAAAAAUGCAGGGGUCUAAAACUGAGCGGAUAACCUCUCUAUGG
RNA 2: GGGAAUGGAUCCACAUCUACGAAUUCGUACCAUAGAGAGGUUAUCCGCUAGCACCGAGAUCGGAAGAGCACACGU
B4: target 1 insA 3' of 5,insA 3' of 4 (mixed)
RNA 1: CACCCGUGCAAAAAUGCAGGGGUCUAAAACUGAGCGGAUAACCUCUCUAUGG
RNA 2: GGGAAUGGAUCCACAUCUACGAAUUCGUACCAUAGAGAGGUUAUCCGACAUCACCGAGAUCGGAAGAGCACACGU
B5: target 1 U8G,G12U (mixed)
RNA 1: CACCCGUGCAAAAAUGCAGGGGUCUAAAACUGAGCGGAUAACCUCUCUAUGG
RNA 2: GGGAAUGGAUCCACAUCUACGAAUUCGUACCAUAGAGAGUUUAGCCGCUCACCGAGAUCGGAAGAGCACACGU
B6: target 1 MT 5'PFS UAG 3'PFS UUG (mixed)
RNA 1: CACCCGUGCAAAAAUGCAGGGGUCUAAAACUGAGCGGAUAACCUCUCUAUGG
RNA 2: GGGAAUGGAUCCACAUCUACGAAUUCUAGCCAUAGAGAGGUUAUCCGCUCAUUGAGAUCGGAAGAGCACACGU
B7: target 1 insU 3' of 21,insA 3' of 6 (mixed)
RNA 1: CACCCGUGCAAAAAUGCAGGGGUCUAAAACUGAGCGGAUAACCUCUCUAUGG
RNA 2: GGGAAUGGAUCCACAUCUACGAAUUCGUACCUAUAGAGAGGUUAUCCAGCUCACCGAGAUCGGAAGAGCACACGU
B8: target 1 insC 3' of 13,insG 3' of 4 (mixed)
RNA 1: CACCCGUGCAAAAAUGCAGGGGUCUAAAACUGAGCGGAUAACCUCUCUAUGG
RNA 2: GGGAAUGGAUCCACAUCUACGAAUUCGUACCAUAGAGAGCGUUAUCCGCGUCACCGAGAUCGGAAGAGCACACGU
B9: target 1 insC 3' of 22,insG 3' of 4 (mixed)
RNA 1: CACCCGUGCAAAAAUGCAGGGGUCUAAAACUGAGCGGAUAACCUCUCUAUGG
RNA 2: GGGAAUGGAUCCACAUCUACGAAUUCGUACCCAUAGAGAGGUUAUCCGCGUCACCGAGAUCGGAAGAGCACACGU
B10: target 1 U3G,U8G (mixed)
RNA 1: CACCCGUGCAAAAAUGCAGGGGUCUAAAACUGAGCGGAUAACCUCUCUAUGG
RNA 2: GGGAAUGGAUCCACAUCUACGAAUUCGUACCAUAGAGAGGUUAGCCGCGCACCGAGAUCGGAAGAGCACACGU
B11: target 1 A16G (mixed)
RNA 1: CACCCGUGCAAAAAUGCAGGGGUCUAAAACUGAGCGGAUAACCUCUCUAUGG
RNA 2: GGGAAUGGAUCCACAUCUACGAAUUCGUACCAUAGGGAGGUUAUCCGCUCACCGAGAUCGGAAGAGCACACGU
B12: target 1 insA 3' of 6,insA 3' of 5 (mixed)
RNA 1: CACCCGUGCAAAAAUGCAGGGGUCUAAAACUGAGCGGAUAACCUCUCUAUGG
RNA 2: GGGAAUGGAUCCACAUCUACGAAUUCGUACCAUAGAGAGGUUAUCCAGACUCACCGAGAUCGGAAGAGCACACGU
B13: target 1 A14G,G15A (mixed)
RNA 1: CACCCGUGCAAAAAUGCAGGGGUCUAAAACUGAGCGGAUAACCUCUCUAUGG
RNA 2: GGGAAUGGAUCCACAUCUACGAAUUCGUACCAUAGAAGGGUUAUCCGCUCACCGAGAUCGGAAGAGCACACGU
B14: target 1 insU 3' of 14,insA 3' of 13 (mixed)
RNA 1: CACCCGUGCAAAAAUGCAGGGGUCUAAAACUGAGCGGAUAACCUCUCUAUGG
RNA 2: GGGAAUGGAUCCACAUCUACGAAUUCGUACCAUAGAGAUGAGUUAUCCGCUCACCGAGAUCGGAAGAGCACACGU
B15: target 1 insA 3' of 7,insC 3' of 3 (mixed)
RNA 1: CACCCGUGCAAAAAUGCAGGGGUCUAAAACUGAGCGGAUAACCUCUCUAUGG
RNA 2: GGGAAUGGAUCCACAUCUACGAAUUCGUACCAUAGAGAGGUUAUCACGCUCCACCGAGAUCGGAAGAGCACACGU
B16: target 1 insA 3' of 5,insC 3' of 5 (mixed)
RNA 1: CACCCGUGCAAAAAUGCAGGGGUCUAAAACUGAGCGGAUAACCUCUCUAUGG
RNA 2: GGGAAUGGAUCCACAUCUACGAAUUCGUACCAUAGAGAGGUUAUCCGACCUCACCGAGAUCGGAAGAGCACACGU
B17: target 1 insC 3' of 16,insC 3' of 8 (mixed)
RNA 1: CACCCGUGCAAAAAUGCAGGGGUCUAAAACUGAGCGGAUAACCUCUCUAUGG
RNA 2: GGGAAUGGAUCCACAUCUACGAAUUCGUACCAUAGACGAGGUUAUCCCGCUCACCGAGAUCGGAAGAGCACACGU
B18: target 1 MT 5'PFS GAA 3'PFS CAU (mixed)
RNA 1: CACCCGUGCAAAAAUGCAGGGGUCUAAAACUGAGCGGAUAACCUCUCUAUGG
RNA 2: GGGAAUGGAUCCACAUCUACGAAUUCGAACCAUAGAGAGGUUAUCCGCUCACAUAGAUCGGAAGAGCACACGU
B19: target 1 del8,del16 (mixed)
RNA 1: CACCCGUGCAAAAAUGCAGGGGUCUAAAACUGAGCGGAUAACCUCUCUAUGG
RNA 2: GGGAAUGGAUCCACAUCUACGAAUUCGUACCAUAGGAGGUUACCGCUCACCGAGAUCGGAAGAGCACACGU
B20: target 1 C6U,A18C (mixed)
RNA 1: CACCCGUGCAAAAAUGCAGGGGUCUAAAACUGAGCGGAUAACCUCUCUAUGG
RNA 2: GGGAAUGGAUCCACAUCUACGAAUUCGUACCAUCGAGAGGUUAUCUGCUCACCGAGAUCGGAAGAGCACACGU
B21: target 1 MT 5'PFS UAG 3'PFS UUC (mixed)
RNA 1: CACCCGUGCAAAAAUGCAGGGGUCUAAAACUGAGCGGAUAACCUCUCUAUGG
RNA 2: GGGAAUGGAUCCACAUCUACGAAUUCUAGCCAUAGAGAGGUUAUCCGCUCAUUCAGAUCGGAAGAGCACACGU
B22: target 1 MT 5'PFS UAG 3'PFS UUA (mixed)
RNA 1: CACCCGUGCAAAAAUGCAGGGGUCUAAAACUGAGCGGAUAACCUCUCUAUGG
RNA 2: GGGAAUGGAUCCACAUCUACGAAUUCUAGCCAUAGAGAGGUUAUCCGCUCAUUAAGAUCGGAAGAGCACACGU
B23: target 1 A16C,A20U (mixed)
RNA 1: CACCCGUGCAAAAAUGCAGGGGUCUAAAACUGAGCGGAUAACCUCUCUAUGG
RNA 2: GGGAAUGGAUCCACAUCUACGAAUUCGUACCUUAGCGAGGUUAUCCGCUCACCGAGAUCGGAAGAGCACACGU
B24: target 1 insA 3' of 17,insC 3' of 11 (mixed)
RNA 1: CACCCGUGCAAAAAUGCAGGGGUCUAAAACUGAGCGGAUAACCUCUCUAUGG
RNA 2: GGGAAUGGAUCCACAUCUACGAAUUCGUACCAUAGAAGAGGUCUAUCCGCUCACCGAGAUCGGAAGAGCACACGU
B25: target 1 insC 3' of 17,insA 3' of 5 (mixed)
RNA 1: CACCCGUGCAAAAAUGCAGGGGUCUAAAACUGAGCGGAUAACCUCUCUAUGG
RNA 2: GGGAAUGGAUCCACAUCUACGAAUUCGUACCAUAGCAGAGGUUAUCCGACUCACCGAGAUCGGAAGAGCACACGU
B26: target 1 insA 3' of 17,insA 3' of 3 (mixed)
RNA 1: CACCCGUGCAAAAAUGCAGGGGUCUAAAACUGAGCGGAUAACCUCUCUAUGG
RNA 2: GGGAAUGGAUCCACAUCUACGAAUUCGUACCAUAGAAGAGGUUAUCCGCUACACCGAGAUCGGAAGAGCACACGU
B27: target 1 C6A,G17U (mixed)
RNA 1: CACCCGUGCAAAAAUGCAGGGGUCUAAAACUGAGCGGAUAACCUCUCUAUGG
RNA 2: GGGAAUGGAUCCACAUCUACGAAUUCGUACCAUAUAGAGGUUAUCAGCUCACCGAGAUCGGAAGAGCACACGU
B28: target 1 insA 3' of 8,insU 3' of 1 (mixed)
RNA 1: CACCCGUGCAAAAAUGCAGGGGUCUAAAACUGAGCGGAUAACCUCUCUAUGG
RNA 2: GGGAAUGGAUCCACAUCUACGAAUUCGUACCAUAGAGAGGUUAUACCGCUCAUCCGAGAUCGGAAGAGCACACGU

These binders were tested against T1, EsCas13d, nuclease-dead (assay: crRNA (strand 1, pre-loaded); Mg2+; 40 mM Tris-HCl pH 7.5, 150 mM NaCl, 6 mM MgCl2, 1 mM DTT, 0.1% Tween-20, 0.2 mg/ml BSA; 25 C; 10 min per concentration, then washed). Settings: tags: His6-TwinStrep-SUMO cleaved; N-terminal SNAP kept (SNAP-Surface 488); label: 3' end held by stalled T7 RNA polymerase.
In the case of B1, the Kd is reported as 32.4 ± 1.8 nM.
In the case of B2, the Kd is reported as 15.4 ± 0.8 nM.
B3 was tested, and the Kd was 6.2 ± 0.5 nM.
B4 showed a Kd of 9.8 ± 1.1 nM.
Binder B5 has a Kd of 11.8 ± 1.3 nM.
B6 showed a Kd of 12.9 ± 1.1 nM.
B7 gave a Kd of 28.2 ± 2.3 nM.
In the case of B8, the Kd is reported as 5.33 ± 0.22 nM.
B9 showed a Kd of 12.8 ± 1.1 nM.
B10 gave a Kd of 10.8 ± 0.4 nM.
With B11 the Kd was 29.4 ± 1.4 nM.
In the case of B12, the Kd is reported as 53 ± 6 nM.
B13 was tested, and the Kd was 14.8 ± 1.5 nM.
B14 gave a Kd of 9.2 ± 0.8 nM.
B15 showed a Kd of 6.32 ± 0.25 nM.
In the case of B16, the Kd is reported as 11.3 ± 1 nM.
With B17 the Kd was roughly 90 nM.
In the case of B18, the Kd is reported as roughly 95 nM.
Binder B19 has a Kd of 71 ± 18 nM.
Work on B20 yielded a Kd of 58 ± 7 nM.
Work on B21 yielded a Kd of 18.9 ± 3.85 nM.
B22 was tested, and the Kd was 18.4 ± 3.7 nM.
With B23 the Kd was 85 ± 29 nM.
B24 showed a Kd of 51 ± 10 nM.
B25 was tested, and the Kd was 23 ± 4 nM.
B26 showed a Kd of 11.7 ± 0.4 nM.
In the case of B27, the Kd is reported as 18.7 ± 1.2 nM.
B28 gave a Kd of 12.9 ± 0.6 nM.
